Results reported in PMC4399976 (The Biochemical journal, 2015).

Target: wild-type (WT) proMMP-9 trimer (reduction-sensitive homomultimer) (human, UniProt P14780 20-707)
Assay: SPR

Sequence of wild-type (WT) proMMP-9 trimer (reduction-sensitive homomultimer) (P14780 20-707): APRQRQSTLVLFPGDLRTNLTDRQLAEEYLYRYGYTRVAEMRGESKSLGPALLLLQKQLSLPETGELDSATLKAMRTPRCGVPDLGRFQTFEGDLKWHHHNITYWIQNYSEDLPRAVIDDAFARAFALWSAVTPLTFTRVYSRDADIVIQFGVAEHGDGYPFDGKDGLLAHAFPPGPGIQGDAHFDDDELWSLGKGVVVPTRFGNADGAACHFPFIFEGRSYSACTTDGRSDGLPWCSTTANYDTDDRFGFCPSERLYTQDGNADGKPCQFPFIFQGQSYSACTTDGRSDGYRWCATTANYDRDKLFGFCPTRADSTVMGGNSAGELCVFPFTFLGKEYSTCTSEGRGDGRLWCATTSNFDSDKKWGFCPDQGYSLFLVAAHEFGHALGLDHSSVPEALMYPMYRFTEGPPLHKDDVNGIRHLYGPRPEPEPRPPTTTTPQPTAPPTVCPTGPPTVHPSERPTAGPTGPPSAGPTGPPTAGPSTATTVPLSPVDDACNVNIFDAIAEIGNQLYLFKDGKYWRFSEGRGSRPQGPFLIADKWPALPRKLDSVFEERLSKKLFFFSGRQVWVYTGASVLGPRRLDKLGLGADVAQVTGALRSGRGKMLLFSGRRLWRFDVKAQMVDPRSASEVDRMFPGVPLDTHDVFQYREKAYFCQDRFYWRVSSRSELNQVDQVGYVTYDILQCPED

Kd: 400 pM
B1: tissue inhibitor of metalloproteinases-1 (TIMP-1), recombinant human (natural protein)
chain: not shown
